{
  "source": "the supplement of paper PMC9112550",
  "about": "“Optimization of the antimicrobial peptide Bac7 by deep mutational scanning” (BMC Biology, 2022);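 note: peptides expressed intracellularly from a pBAD plasmid library in pooled LB shake-flask culture, induced with 0.3% L-arabinose, DNA abundance read by NGS, three biological replicates, DESeq2 with apeglm shrinkage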",
  "data": [
    {"system": "Escherichia coli TOP10", "experiment": "shrunken log2 fold change of peptide-encoding DNA abundance (4.5 h post-induction vs induction); higher = less antimicrobial activity (less host growth inhibition)", "conditions": "time post-induction: 4.5 h; library: site-saturation at positions 5, 18, 19, 20", "values": [
      {"sequence": "RRIRGRPPRLPRPRPRPQNLPRP", "shrunken log2 fold change": -0.34},
      {"sequence": "RRIRGRPPRLPRPRPRPQQMPRP", "shrunken log2 fold change": 0.287},
      {"sequence": "RRIRGRPPRLPRPRPRPQREPRP", "shrunken log2 fold change": 0.225},
      {"sequence": "RRIRGRPPRLPRPRPRPQRQPRP", "shrunken log2 fold change": 0.687},
      {"sequence": "RRIRGRPPRLPRPRPRPQSLPRP", "shrunken log2 fold change": 0.251},
      {"sequence": "RRIRGRPPRLPRPRPRPQTVPRP", "shrunken log2 fold change": 0.19},
      {"sequence": "RRIRGRPPRLPRPRPRPQVGPRP", "shrunken log2 fold change": 0.395},
      {"sequence": "RRIRGRPPRLPRPRPRPQVIPRP", "shrunken log2 fold change": -0.0421},
      {"sequence": "RRIRGRPPRLPRPRPRPQYEPRP", "shrunken log2 fold change": 0.0238},
      {"sequence": "RRIRGRPPRLPRPRPRPQYVPRP", "shrunken log2 fold change": -0.0061},
      {"sequence": "RRIRGRPPRLPRPRPRPRCIPRP", "shrunken log2 fold change": 0.273},
      {"sequence": "RRIRGRPPRLPRPRPRPRCLPRP", "shrunken log2 fold change": 0.706},
      {"sequence": "RRIRGRPPRLPRPRPRPRCRPRP", "shrunken log2 fold change": 0.957},
      {"sequence": "RRIRGRPPRLPRPRPRPRDEPRP", "shrunken log2 fold change": 0.293},
      {"sequence": "RRIRGRPPRLPRPRPRPRDPPRP", "shrunken log2 fold change": 1.32},
      {"sequence": "RRIRGRPPRLPRPRPRPREIPRP", "shrunken log2 fold change": 1.1},
      {"sequence": "RRIRGRPPRLPRPRPRPRFLPRP", "shrunken log2 fold change": 0.448},
      {"sequence": "RRIRGRPPRLPRPRPRPRGSPRP", "shrunken log2 fold change": 0.832},
      {"sequence": "RRIRGRPPRLPRPRPRPRHAPRP", "shrunken log2 fold change": 1.05},
      {"sequence": "RRIRGRPPRLPRPRPRPRISPRP", "shrunken log2 fold change": 0.353},
      {"sequence": "RRIRGRPPRLPRPRPRPRITPRP", "shrunken log2 fold change": 0.792},
      {"sequence": "RRIRGRPPRLPRPRPRPRKTPRP", "shrunken log2 fold change": 0.375},
      {"sequence": "RRIRGRPPRLPRPRPRPRLQPRP", "shrunken log2 fold change": 0.759},
      {"sequence": "RRIRGRPPRLPRPRPRPRLVPRP", "shrunken log2 fold change": 0.725},
      {"sequence": "RRIRGRPPRLPRPRPRPRMHPRP", "shrunken log2 fold change": 0.997},
      {"sequence": "RRIRGRPPRLPRPRPRPRMNPRP", "shrunken log2 fold change": 0.572},
      {"sequence": "RRIRGRPPRLPRPRPRPRMYPRP", "shrunken log2 fold change": 0.0954},
      {"sequence": "RRIRGRPPRLPRPRPRPRNNPRP", "shrunken log2 fold change": 0.346},
      {"sequence": "RRIRGRPPRLPRPRPRPRNPPRP", "shrunken log2 fold change": 0.52},
      {"sequence": "RRIRGRPPRLPRPRPRPRPAPRP", "shrunken log2 fold change": 1.07},
      {"sequence": "RRIRGRPPRLPRPRPRPRPRPRP", "shrunken log2 fold change": 1.31},
      {"sequence": "RRIRGRPPRLPRPRPRPRQWPRP", "shrunken log2 fold change": 0.585},
      {"sequence": "RRIRGRPPRLPRPRPRPRRTPRP", "shrunken log2 fold change": 0.67},
      {"sequence": "RRIRGRPPRLPRPRPRPRTCPRP", "shrunken log2 fold change": 0.592},
      {"sequence": "RRIRGRPPRLPRPRPRPRVHPRP", "shrunken log2 fold change": 0.666},
      {"sequence": "RRIRGRPPRLPRPRPRPRWYPRP", "shrunken log2 fold change": 0.271},
      {"sequence": "RRIRGRPPRLPRPRPRPRYKPRP", "shrunken log2 fold change": 0.247},
      {"sequence": "RRIRGRPPRLPRPRPRPSARPRP", "shrunken log2 fold change": 1.1},
      {"sequence": "RRIRGRPPRLPRPRPRPSDNPRP", "shrunken log2 fold change": -0.165},
      {"sequence": "RRIRGRPPRLPRPRPRPSDPPRP", "shrunken log2 fold change": 0.261},
      {"sequence": "RRIRGRPPRLPRPRPRPSEMPRP", "shrunken log2 fold change": 0.4},
      {"sequence": "RRIRGRPPRLPRPRPRPSESPRP", "shrunken log2 fold change": 0.504},
      {"sequence": "RRIRGRPPRLPRPRPRPSFVPRP", "shrunken log2 fold change": 0.0328},
      {"sequence": "RRIRGRPPRLPRPRPRPSIGPRP", "shrunken log2 fold change": 0.0763},
      {"sequence": "RRIRGRPPRLPRPRPRPSIPPRP", "shrunken log2 fold change": -0.137},
      {"sequence": "RRIRGRPPRLPRPRPRPSIQPRP", "shrunken log2 fold change": 0.176},
      {"sequence": "RRIRGRPPRLPRPRPRPSISPRP", "shrunken log2 fold change": 0.0894},
      {"sequence": "RRIRGRPPRLPRPRPRPSKDPRP", "shrunken log2 fold change": 0.0908},
      {"sequence": "RRIRGRPPRLPRPRPRPSLQPRP", "shrunken log2 fold change": 1.07},
      {"sequence": "RRIRGRPPRLPRPRPRPSLRPRP", "shrunken log2 fold change": 0.57},
      {"sequence": "RRIRGRPPRLPRPRPRPSMWPRP", "shrunken log2 fold change": 0.291},
      {"sequence": "RRIRGRPPRLPRPRPRPSNAPRP", "shrunken log2 fold change": 0.216},
      {"sequence": "RRIRGRPPRLPRPRPRPSNIPRP", "shrunken log2 fold change": 1.1},
      {"sequence": "RRIRGRPPRLPRPRPRPSPDPRP", "shrunken log2 fold change": 0.69},
      {"sequence": "RRIRGRPPRLPRPRPRPSPEPRP", "shrunken log2 fold change": 0.498},
      {"sequence": "RRIRGRPPRLPRPRPRPSQFPRP", "shrunken log2 fold change": 0.192},
      {"sequence": "RRIRGRPPRLPRPRPRPSQNPRP", "shrunken log2 fold change": 0.229},
      {"sequence": "RRIRGRPPRLPRPRPRPSQPPRP", "shrunken log2 fold change": 0.138},
      {"sequence": "RRIRGRPPRLPRPRPRPSRCPRP", "shrunken log2 fold change": -0.0851},
      {"sequence": "RRIRGRPPRLPRPRPRPSRQPRP", "shrunken log2 fold change": 0.133},
      {"sequence": "RRIRGRPPRLPRPRPRPSTSPRP", "shrunken log2 fold change": 0.315},
      {"sequence": "RRIRGRPPRLPRPRPRPSWFPRP", "shrunken log2 fold change": 0.373},
      {"sequence": "RRIRGRPPRLPRPRPRPSYDPRP", "shrunken log2 fold change": -0.0196},
      {"sequence": "RRIRGRPPRLPRPRPRPTAQPRP", "shrunken log2 fold change": 1.35},
      {"sequence": "RRIRGRPPRLPRPRPRPTDFPRP", "shrunken log2 fold change": 0.161},
      {"sequence": "RRIRGRPPRLPRPRPRPTERPRP", "shrunken log2 fold change": 0.675},
      {"sequence": "RRIRGRPPRLPRPRPRPTFGPRP", "shrunken log2 fold change": 0.404},
      {"sequence": "RRIRGRPPRLPRPRPRPTGVPRP", "shrunken log2 fold change": 0.742},
      {"sequence": "RRIRGRPPRLPRPRPRPTHYPRP", "shrunken log2 fold change": 0.525},
      {"sequence": "RRIRGRPPRLPRPRPRPTKPPRP", "shrunken log2 fold change": 0.0691},
      {"sequence": "RRIRGRPPRLPRPRPRPTKTPRP", "shrunken log2 fold change": 0.0741},
      {"sequence": "RRIRGRPPRLPRPRPRPTLMPRP", "shrunken log2 fold change": 0.815},
      {"sequence": "RRIRGRPPRLPRPRPRPTLTPRP", "shrunken log2 fold change": 1.1},
      {"sequence": "RRIRGRPPRLPRPRPRPTMAPRP", "shrunken log2 fold change": 1.24},
      {"sequence": "RRIRGRPPRLPRPRPRPTMRPRP", "shrunken log2 fold change": 1.44}
    ]}
  ]
}
